Assay results from patent publication US20240317834A1, “COMPOSITIONS AND METHODS FOR NEUROLOGICAL DISEASES” (CODA BIOTHERAPEUTICS, INC., priority 2020, published 2024).

System: Lenti-X 293T cells
Experiment: YFP fluorescence quenching anion reporter plate reader assay of engineered receptors stimulated with acetylcholine or a non-native ligand
Assay type: cell-based
How it was run: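 Lenti-X 293T cells carrying a YFP anion reporter were transiently transfected with channel DNA and assayed the next day in HEPES-buffered ECS at pH 7.2. Ligand (acetylcholine or non-native ligand) was added in NaI-substituted ECS. Percent quench was the mean of the last 10 s relative to the 15 s pre-addition baseline.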

B1: CODA340: engineered chimeric LGIC receptor, L131E in SEQ ID NO: 33 (protein)
chain: MRCSPGGVWLALAASLLHVSLQGEFQRKLYKELVKNYNPLERPVANDSQPLTVYFSLSLLQIMDVDEKNQVLTTNIWLQMSWTDHYLQWNVSEYPGVKTVRFPDGQIWKPDILLYNSADERFDATFHTNVEVNSSGHCQYLPPGIFKSSCPMDLKNFPMDVQTCKLKFGSWSYGGWSLDLQMQEADISGYIPNGEWDLVGIPGKRSERFYECCKEPYPDVTFTVTMRRRMGYYLIQMYIPSLLIVILSWISFWINMDAAPARVGLGITTVLTMTTQSSGSRASLPKVSYVKAIDIWMAVCLLFVFSALLEYAAVNFVSRQHKELLRFRRKRRHHKSPMLNLFQEDEAGEGRFNFSAYGMGPACLQAKDGISVKGANNSNTTNPPPAPSKSPEEMRKLFIQRAKKIDKISRIGFPMAFLIFNMFYWIIYKIVRREDVHNQ
modifications: synthetic sequence of chimeric LGIC
Question: Which results are given for B1?
Answer: YFP fluorescence quenching using CNL001 (1 nM CNL001, first column): 76.413%; YFP fluorescence quenching using CNL001 (1 nM CNL001, second column): 77.144%; YFP fluorescence quenching using TC-5619/Bradanicline (3 nM brd): 68.57%; YFP fluorescence quenching using Varenicline (3 nM var, first column): −4.061; YFP fluorescence quenching using Varenicline (3 nM var, second column): −0.568; YFP fluorescence quenching using CNL001 (10 nM CNL001, first column): 78.258%; YFP fluorescence quenching using CNL001 (10 nM CNL001, second column): 78.763%; YFP fluorescence quenching using TC-5619/Bradanicline (30 nM brd): 76.85%; YFP fluorescence quenching using Facinicline (30 nM fac): 82.51; YFP fluorescence quenching using Varenicline (30 nM var, first column): 62.964; YFP fluorescence quenching using Varenicline (30 nM var, second column): 63.631; YFP fluorescence quenching using CNL001 (50 nM CNL001, first column): 79.757%; YFP fluorescence quenching using CNL001 (50 nM CNL001, second column): 79.327%; YFP fluorescence quenching using ABT-126 (50 nM abt): 2.2%; YFP fluorescence quenching using CNL001 (100 nM CNL001, first column): 79.011%; YFP fluorescence quenching using CNL001 (100 nM CNL001, second column): 79.948%; YFP fluorescence quenching using CNL002 (100 nM CNL002): 49.97%; YFP fluorescence quenching using ABT-126 (100 nM abt): 25.39%; YFP fluorescence quenching using AZD-0328 (100 nM azd0328): 82.48%; YFP fluorescence quenching using Facinicline (100 nM fac): 83.6; YFP fluorescence quenching using ABT-126 (300 nM abt): 36.48%; YFP fluorescence quenching using AZD-0328 (300 nM azd0328): 82.04%; YFP fluorescence quenching using TC-5619/Bradanicline (300 nM brd): 78.49%; YFP fluorescence quenching using Facinicline (300 nM fac): 82.92; YFP fluorescence quenching using Varenicline (300 nM var, first column): 74.912; YFP fluorescence quenching using Varenicline (300 nM var, second column): 75.084; YFP fluorescence quenching using Varenicline (500 nM var, first column): 76.346; YFP fluorescence quenching using Varenicline (500 nM var, second column): 75.876; YFP fluorescence quenching using CNL001 (1 uM CNL001, first column): 79.855%; YFP fluorescence quenching using CNL001 (1 uM CNL001, second column): 80.618%; YFP fluorescence quenching using CNL002 (1 uM CNL002): 67.8%; YFP fluorescence quenching using ABT-126 (1 uM abt): 50.76%; YFP fluorescence quenching using TC-6987 (1 uM tc6987): 80.13; YFP fluorescence quenching using Varenicline (1 uM var, first column): 75.805; YFP fluorescence quenching using Varenicline (1 uM var, second column): 74.856; YFP fluorescence quenching using TC-6987 (10 uM tc6987): 81.29; YFP fluorescence quenching using CNL002 (30 uM CNL002): 64.58%; YFP fluorescence quenching using AZD-0328 (30 uM azd0328): 81.8%; YFP fluorescence quenching using Facinicline (30 uM fac): 82.68; YFP fluorescence quenching using TC-6987 (500 uM tc6987): 79.6; percent quench of YFP fluorescence, 30 nM TC-6683 (TC-6683 30 nM): 30.14%; percent quench of YFP fluorescence, 300 nM TC-6683 (TC-6683 300 nM): 33.02%; percent quench of YFP fluorescence, 3 uM TC-6683 (TC-6683 3 uM): 41.68%; percent quench of YFP fluorescence, 30 uM TC-6683 (TC-6683 30 uM): 35.75%; percent quench of YFP fluorescence, 100 uM TC-6683 (TC-6683 100 uM): 24.32%; percent quench of YFP fluorescence, 10 uM ach (acetylcholine 10 uM): 15.29%; percent quench of YFP fluorescence, 30 uM ach (acetylcholine 30 uM): 66.56%; percent quench of YFP fluorescence, 100 uM ach (acetylcholine 100 uM): 81.31%; percent quench of YFP fluorescence, 1 mM ach (acetylcholine 1 mM): 80.77%; percent quench of YFP fluorescence, 3 mM ach (acetylcholine 3 mM): 77.31%
